According to a protein production outcome set (Wang et al. 2014):

Experiment: label from the status in PepcDB records
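Also: failed if final PepcDB status was selected cloned or expressed and not failed if soluble or beyond.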

| Sequence | protein production |
| --- | --- |
| MNDPMGETGFSRESAPEIVFSETDMAAAEQLMHLSEEETVSCSSSTGGDCGGGGGDKIKHEYVSSRIGNELNDGVRGNSILGVEKKRKRTVMKEKKFRSLESIYKGTKEIRD | failed |
| MNDRSLGILLMFLTVIFWGISFVATKIILVYIPPITLGFIRFAIAAMILIVLIRNFPSYSKKDFLNLVLAGFLGITSYFLFENVALEYTTATNAALIAATVPIFYLMVSDLVERRIPSKIQYFGSLIGLFGVSILILNGRLILELNPIGDLLMIGAVLSWVLYTFVIQKLEKHDNLTVTRDITLIGVLLSVPFMLLEFGSKGVLDLGVFLNPPLTFAVLYLAIFCSAIAYLFWNMSIRLAGASTTNNGIYFIPIVAMIADSIILKNIPNIYATIGAVLVLFGVYISEKGDKLKIKL | failed |
| MNEHNITNTSLALSMLLVVVAMLISHKEKLALEKDILWSVCRAVIQLIIVGYVLKYIFGVNHAALTLLMVLFICFNAAWNAQKRSKYIDKAFLSSFIAITVGAGLTLTVLVLTGSIEFAPMQVIPIAGMVAGNAMVAVGLCYNQLGLRFHSEQQQIQEKLSLGATPKMASAGLIRDSIRASLIPTIDSAKTVGLVSLPGMMSGLIFAGIDPVKAIKYQIMVTFMLLSTASLSTIIACYLTYRKFYNSRHQLVVMPLKKS | failed |
| MNEKFNINIAWFLIILGGIIECFWVSGLKYSTEIWHYILTAIGVCISFTCFLKACERLEVSITYSVFVGIGTIGVVLNEMFIFNEAVSIIKLVLIAILLLSIIALKWVSKEA | failed |
| MNENTKVIKGRTGDWEMVLGLEVHAQVASKSKLFSGAAVGFGAGPNEQVSLVDAAMPGMLPVLNRFCVEQAVKTGLGLRAQINLKSRFDRKNYFYPDLPQGYQISQFDQPIVGEGVVSVERDDGTTFDVRIERLHLEQDAGKSLHDQDPNATYVDLNRAGTALMEIVSKPDMRTSEEAAAYVKKLRTILVYLGTCDGDMEKGNLRADVNVSVCRPGDYEKFRATGDFKHLGTRCEIKNVNSYRYIQQAIEYEARRQIEILEDGGKVDQETRLFDPTKGETRSMRSKEEAHDYRYFPDPDLLPLVLDPAWVKSIEETLPELPDAKKARLQSQYGLSAYDAGVLIIDADRADYFEAAAKGRDAKLVANWVTNELLAKLSAAGTEFTNSPLPHTDIAQLVELIENGTISSKIAKEVFEHMWAGEGRPAEIVEKRGLVQINDTGAIEKAIDDLIAGNPDKAEAVKDKPQALGWFVGQVMKATGGKANPGTVNELLRKKLGVE | failed |
| MNEQKNTAENTVNKQKDLETAGKTREKEDPKQLLLTASETDNYEDKLRIYDKALGLDPLYFDAWLQKGFVLDRLGRSNEALDCYNKALEIVPDHLGIKCLKGFAYSNLKDYEKAIECYDEVLKVNSEDVFSLFQKGSVLENLGRYGEAMEAYDRALEIDPADILIREKKMRLLGLIYKKGTLVDSPDSDFN | failed |
| MNEQQRLASQQVNSSTKKEEKDYSKYFESVYQPPSLKEAKKRGKEEVKIERDFGLPEEFRNFGTGRKFYIRTYGCQMNEHDTEVMAGIFTALGYEPTFSTEDADVVLLNTCAIRENAENKVFGELGHLKALKRRNPDLLIGVCGCMSQEESVVNKIMQKNQHVDMVFGTHNIHRLPYILKDAMFSKETVVEVWSKEGDVIENLPKVRRGDIKAWVNIMYGCDKFCTYCIVPYTRGKERSRRPEDIIQEIRHLAANGYKEITLLGQNVNAYGKDFEDIEYGLGDLMDELRKVDIARIRFTTSHPRDFDDHLIEVLGKGGNLVEHIHLPVQSGSTEMLKIMARKYSREHYLELVRKIKEAIPNAVLTTDIIVGFPNETDEQFEETMSLYREVGFDTAFTFIYSPREGTPAAKMKDNVPMEVKKERLQRLNALVNKLAIEKNDRYKGQIVEVLVDGESKNNPEVLAGYTRTNKLVNFVAPKSLIGQLVKVKVTDAKTWSLNGELVEEPIEVELEHHHHHH | failed |
| MNESGFLIDTHAHIDGHDFAADFDAMLSRAWEAGLSHIVTVGADLESSRAAVALAGRHERIWCAVGIHPHDAGRVTDRCYDEIRTLAQGNPKVAAIGEIGLDFFRDRSPRDEQEQVFRRFIRLARELALPIVVHDRDAHERVMAILREEKARDVGGVLHCFSGDLAMARECVDMGFLISIPGTVTYPSNEALREVVRGVKIEHLLVETDCPYLTPVPHRGKRNEPAYVRLTAEKVAELKGLSLEDVGRITSLNARRLFGIGESDQAARIAYRIRNSLYLNITNRCSNRCSFCAKFDDYTVKGHHLRLDHEPDSAEVLAAVGEPGPVDEIVFCGFGEPMLRLDLIVEVARELKKRGFRIRINTDGQANLVHGRNVLPELQGLVDCISVSLNAADADTYARLCNTPFGTNGFNGICRFLEEARLYIPTVVATAVTVPGIDVAAVRALAESLGVEFREREFAEVGLEHHHHHH | not failed |
| MNFKKLSNAKVSVMAVVLSVGILSGYSALNKQVTLVVRGEERTISTFSSNVGDLLESQNISYDANDIVTLDENTKLSNGDKIEVIDVKEKTVVETKDIPFEVTVVEDGSLLKGDSKVKEEGKSGKSELIYKETYHNGKKVEKEFVKKVVKAEPVNKVVSKGTKVEMQVASSRGESSRRMASSSSSSSSSNNGKNMRVVATAYTGHSITATGTKPKWGTIAVDPKVIPYGTKVYIPQFDMVFTAEDCGGAIKGNKIDIYMNDSKTVYNWGRKTIDIRILK | failed |
| MNFLVIGSSLAFLLYILATLAIVTRLFHPKGPNITLVLSLATAAIIVHGFNDGLLFFSQDTINFNLPNVISLVSLIITIAVTLVSLRFKVNLLLPVIYGFTGLWQLVILFIPPIDSIPLVVEKVILLSHISFALIAYCVLIIATLYAFQVTYINLKLKSKNLTAVAHLPPLMQVEKQLFSILTVGTAILFISQIIGFVFLDGFLAKENAHKTILSLLSFAIYGLILWGHFEKGWRGHKVLVLMVSASALLTLAYFGSRFVKEFIL | failed |
| MNFPLVLLILLVVTGGIWLLDYFVLRHKRVSGNTEEPWWVEYPKSFFPIILIVFSLRSFLVEPFKIPSGSMIPTLLIGDFILVNKYTYGIRLPVANLKIIDMNEPQRGEVMVFRFPEDPSIDYIKRVIGVPGDMVTYRNKQLSINDVPVQLEQGGDYKYIDGPAYIYTQRFKENMDGSEHDILINEDMPDIQLSAIHHFPNRENCTFDRTGFSCKVPEGNYFTLGDNRDGSSDSRYWGFVPENHIVGKAFLIWWNFNDLSRIGTLIK | failed |
| MNFRTGQPSDAAALAAISIEVWLGTYMRKGVSAFFAEYALNEFTSTKMASLLKDPNEHVIVSENEGGIDAFIRLGQGRAAPVSGCSTLEIATLYVQPRHHRRGLGRALLEQGLAYARQASAPSVWLTTNSENAPAIAFYLEQGFEKVGTTHFNIGDQ | not failed |
| MNFSLVHLRENVRRVSVTVAIGAGALLISGPFFTAHTAEATETYVLAESPEFYQDNVTDYTGQISSSDITNIQAAIDDVKASEQKVIFVVFLSSFDGVDPETWTQQALQANGGGNVLIYALAPEERQYGIQGGTQWTDAELDAANNAAFQALSQEDWAGSALALAESVGSSSSSSSGSSSSSDFSGAWLAAAGVGTVAAGGGIWAYSRSRKKKTSAATLEDAREIDPRDTNRLMQLPMETLEHLAQEELTSTDDSIRRGKEELAIATSEFGPERTRSFNRAMNHSTGTLQKAFEIQQRLNDSIPESEAERQSMLVEIISSCGQADDALDAEAQNFADMRNLLINAGSKLDALTQKSVDLRTRLPKAQETLAGLRTRYSAEVLESIDDNVDLASASLDEAEEVLPQAYEIESMPAGEQGGLIDAIRHIEHAITTADKLLAGVEHADENISTAKANVADLIQEISDEINEAGQLKQSAGADGARADWASLDDAVRAASAALITASADAEKDPLGTYTELVDVDSALDTQLDTLRATAADQARQLRVFDQQLQSARSQIQKAEDLISTRGRIVKSEARTHLANAQKLYAMAQQNRTRDTRAGIDYGRQAAVAAQRASKSAQNDITTYNNRHNSGGGTTGAIVTGMVINSILNSGRGGGFGGGGGFGGGGGGFSGGGGGGGGFRGGRF | failed |
| MNFVTFQFVVFLVITVIVFMMMSPYYRKYFILLCSYFFYGTWSVPLISVILFSTSVDYYLGKKIHESHSQTHKKLYLTLSILVNCSILVYFKYMNFFISSIDAIGFSLGATQLLLNPMHIILPLGVSFYTFEAISYIVDIYRGEKPASSWLNYNFYIMYFPHLISGPIVRYKELHAQYESKIELPETSRLKEGFQLLLYGFIFKLVIADSMASISDPLFDKYQTIGHLESWLASIAFTIQIYFDFLGYTHIARGVSLFFNIKLPVNFNHPYNARNISEFWQRWHITLSLWIRDYLYIPLGGNRGRLYQTVNNLLITMFIAGLWHGASWNYAIWGTYHGCLLAVYHVFRFYYIKRNLQTENQLMKIGSIIMTYSLVVIGWVIFRSTSFEQAFTILGKMYDIPGFVQEFAMNQRASAYTDSLFYLVGMFALCFIGPTFKSIETKILSAVQPFWIKKWLYSLSIFTVLIFMFSPVKPFIYFVF | failed |
| MNFYWFDAFILGFTLLLGLKGIINGLIKEIFGLLGIIGGVFIASKYATQAAEFIQSTFYKIENQSLAGFAGFLAILIIFWIVCLLVGNFLSRLIKLSGLGFLDRIGGFIFGGAKIFLIFAILVFCVARIDFLNDKLDNFAKNSYTLNLLKETGSFIMNQPLTENSLDHASEKLQDIVSDLNNTQKGE | failed |
| MNGFSQLEGLRGHPSVVRVIGHRGARGVMPENTLEGFAFTLAAGVRALEFDVVMTADGVPVVTHNHHLANAMTRDGQGHWLTGAERQVAEMTYAEIRALDVGGLDGRTVYGRRFPDQAFLTGIHVPRLGELLDLCAGYGDQAPYLLLELKSDPALMHDHAARAEMVAAVLADVRRYRMEPRTVMHSFDWALLGECRRQAPDLPTSYLSQLPENADDPGEDSAKPVGPDYDRMTESLPQAVASAGGQLWCPYFLDVTPELVAEAHDLGLIVLTWTVNEPEDIRRMATTGVDGIVTDYPGRTQRILIDMGLSWT | not failed |
| MNGHAFFFAGVRLTALPSGALWWPAERLLCVSDLHLGKAERLARRGGTLLPPYETQATLARLEADLEATGAERVLCLGDSFDDGAAADGLAEPERLWLRRLMTGRDWIWILGNHD | failed |
| MNGQAKTISASAKGIPQPSNNNFVDFTMSYNGTTKVMSITYGGQTWTQNVSSFIGTNQAMSFSIAASTGAQMNLQQLRNVNFTYTVAQGTVIANYVDEQGNTIAQQETTSGDIDTPYVTSQKTIPGYTFKASNGAATSGNYAANDQTVNYVYTRNQGSIDVTYIDQTTGQTLSKKDLSGGTGDSSNYTTTDTIKSYTDAGYELVSDNYPSGGTVFTDTAQHYVVNLKQKLVVSSEQKQVNETIQYVYEDGSKAADDYNAPPLNFTRSVTTNQVTGEKTYGDWQAQNGDSFGEVVSPTIKGETADQLKIDAISGITANSADIQKKVVYKRNQGTIDVTYIDETTGQVLTKKDLSGGTDDPSNYTTADDIKSYTDKGYELVSDDYPSGGTVFTDEPQHYVVKLKHGLTESTDKKAVNQVIHYVYEGGGEAATDHNATVDFSRTITTDRVTNDKTYGDWTADNGDSFASVTSPVIDGYTADQLKVSEMTGITADTEDISVTVTYTRNQGTIDITYIDQTTGQTLSKKDLSGGTGDDSGYTTADTIKSYTDKGYELISDDYPEDGTKFADDPQHYIVRLKHGLTEVTENKTVNQVIHYVYEGGGEAATDHNATVVFSQTITTDKVTGEKTYSDWTADNGDSFASVTSPVIDGYTADQLKVSEMTGITVDTEDISVTVTYTRNQGTIDVTYIDETTGKILTTKDLSGGTGDDSGYTTADTIKSYTDKGYELVSNDYPEDGTKFADDPQHYIVRLKHGTVVETENKSVNEVIHYVYDNGDKAADNYKATIVFSRTITTDKVTGEKTYSDWTADNGGRFAAVLSPIIKDYIASQLKVDEMTGITVDTADIERIVVYHKVPAGIIVPPVHPDKPSQPSNNQSKIPTAKAVKDSKPTDVLPSTGDSQKSQIVLTLLGIMAVIISPLALLLRRRKQ | failed |
